Assay results: patent publication US20150005230A1, “CYCLODEXTRIN-BASED POLYMERS FOR THERAPEUTIC DELIVERY” (priority 2012, published 2015)

Target: human albumin (Homo sapiens, UniProt P02768)
Experiment: Release of CPT in reconstituted human albumin (PBS solution)
Type: in vitro ADME
Settings: in the presence of albumin
Experimental: Samples were stored at −80° C. until the analysis.

Chain of human albumin (P02768 25-609): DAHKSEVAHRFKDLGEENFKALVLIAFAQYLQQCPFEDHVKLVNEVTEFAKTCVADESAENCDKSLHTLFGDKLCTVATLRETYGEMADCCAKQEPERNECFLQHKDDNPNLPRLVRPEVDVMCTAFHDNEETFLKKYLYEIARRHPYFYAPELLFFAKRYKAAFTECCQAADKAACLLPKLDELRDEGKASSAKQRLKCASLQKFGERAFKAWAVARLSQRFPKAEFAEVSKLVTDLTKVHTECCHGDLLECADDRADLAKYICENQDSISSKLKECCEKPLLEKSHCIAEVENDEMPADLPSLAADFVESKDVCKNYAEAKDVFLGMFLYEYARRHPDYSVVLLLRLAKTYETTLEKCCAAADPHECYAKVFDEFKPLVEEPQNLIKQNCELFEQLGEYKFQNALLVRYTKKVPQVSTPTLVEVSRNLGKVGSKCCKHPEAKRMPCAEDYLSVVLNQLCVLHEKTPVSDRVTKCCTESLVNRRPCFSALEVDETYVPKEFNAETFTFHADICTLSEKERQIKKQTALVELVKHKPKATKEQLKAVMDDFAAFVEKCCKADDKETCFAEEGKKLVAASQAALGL

Substance	CPT release rate compared with PBS
Poly(CDDCys-PA-PEG)-Gly-CPT [HG6]	on the same order of magnitude as in PBS
Poly(CDDCys-PA-PEG)-GlyGlyGly-CPT [HGGG6]	on the same order of magnitude as in PBS
